Measured values: paper PMC2396416

Tests used:
[1] = biological target: T1, TFBg (Halobacterium sp. NRC-1, UniProt Q9HSF7 1-323); assay: EMSA
T1 sequence: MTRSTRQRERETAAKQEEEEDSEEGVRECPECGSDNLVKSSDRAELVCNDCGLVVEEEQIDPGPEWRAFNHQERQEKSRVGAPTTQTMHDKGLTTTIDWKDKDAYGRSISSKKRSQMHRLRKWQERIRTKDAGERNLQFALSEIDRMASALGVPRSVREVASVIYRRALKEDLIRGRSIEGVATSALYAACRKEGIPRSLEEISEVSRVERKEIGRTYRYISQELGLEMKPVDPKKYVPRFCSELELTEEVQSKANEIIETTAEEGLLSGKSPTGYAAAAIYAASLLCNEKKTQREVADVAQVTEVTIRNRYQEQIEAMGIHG

[2] = biological target: T2, TFBb (Halobacterium sp. NRC-1, UniProt Q9HRE6 1-325); assay: EMSA
T2 sequence: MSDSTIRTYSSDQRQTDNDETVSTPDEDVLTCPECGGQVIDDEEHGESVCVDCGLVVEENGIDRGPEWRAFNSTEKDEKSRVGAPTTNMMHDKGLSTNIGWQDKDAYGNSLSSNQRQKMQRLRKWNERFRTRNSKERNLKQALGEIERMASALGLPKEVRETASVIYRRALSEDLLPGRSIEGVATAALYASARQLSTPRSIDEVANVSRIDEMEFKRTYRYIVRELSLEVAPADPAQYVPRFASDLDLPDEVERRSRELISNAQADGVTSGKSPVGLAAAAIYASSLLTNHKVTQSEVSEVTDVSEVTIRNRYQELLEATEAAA

B1: FM (BRE/TATA of Phsp5 replaced by Pbop) (dsDNA)
DNA 1: GCGGGATCCTCGTAGAGTTACACGAAATGCGGACATAGTTTTGGCTGGAGTCAAGGCATATGAGT
DNA 2: ACTCATATGCCTTGACTCCAGCCAAAACTATGTCCGCATTTCGTGTAACTCTACGAGGATCCCGC
B1: no binding [1]; no binding [2].
